US20140120095A1 (Boehringer Ingelheim, published 2014)

T1: cynomolgus DLL4 expressed on CHO cells (cynomolgus, UniProt Q9NR61 27-685 (human entry))
T1 construct: also called cDLL4; CHO-cDLL4
T1 chain: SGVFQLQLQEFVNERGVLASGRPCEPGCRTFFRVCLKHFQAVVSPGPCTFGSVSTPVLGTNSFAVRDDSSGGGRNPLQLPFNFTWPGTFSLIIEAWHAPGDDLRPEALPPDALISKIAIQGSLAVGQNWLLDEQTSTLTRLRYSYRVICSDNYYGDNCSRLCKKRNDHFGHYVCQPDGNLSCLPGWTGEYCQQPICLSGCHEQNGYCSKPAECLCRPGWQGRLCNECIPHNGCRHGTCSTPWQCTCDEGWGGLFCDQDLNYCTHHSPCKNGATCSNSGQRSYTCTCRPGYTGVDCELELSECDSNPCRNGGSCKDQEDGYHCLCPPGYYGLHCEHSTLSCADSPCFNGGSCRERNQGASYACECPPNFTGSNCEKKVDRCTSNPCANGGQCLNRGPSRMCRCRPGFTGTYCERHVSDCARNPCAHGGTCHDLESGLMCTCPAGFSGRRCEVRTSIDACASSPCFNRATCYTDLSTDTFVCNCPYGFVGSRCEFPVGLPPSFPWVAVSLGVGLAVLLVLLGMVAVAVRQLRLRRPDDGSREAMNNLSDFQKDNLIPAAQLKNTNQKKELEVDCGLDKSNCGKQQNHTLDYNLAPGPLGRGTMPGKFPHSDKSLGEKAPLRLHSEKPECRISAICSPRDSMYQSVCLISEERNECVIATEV


What was measured:
[1] = target: T2, human DLL4 expressed on cells (CHO-hDLL4; HEK293-hDLL4) (human, UniProt Q9NR61 27-685); experiment: FACS on CHO-hDLL4 cells
T2 construct: full length human DLL4 overexpressed on CHO cells (FMAT, FACS) or HEK293 cells (reporter assay)

[2] = target: T3, recombinant mouse DLL4 (C-terminally His-tagged extracellular domain, R&D Systems) (mouse, UniProt Q9JI71 27-532); experiment: SPR (Biacore), rmDLL4
T3 construct: extracellular domain; also called rmDLL4; mDLL4

[3] = target: T2, human DLL4 expressed on cells …; experiment: competition FMAT, labelled hNotch1-Fc on CHO-hDLL4 cells
[4] = target: T2, human DLL4 expressed on cells …; experiment: cell-based or functional assay
[5] = target: T4, recombinant human DLL4 (C-terminally His-tagged extracellular domain, R&D Systems) (human, UniProt Q9NR61 25-522, biotinylated in the competition ELISA); experiment: SPR (Biacore), rhDLL4
T4 construct: also called rhDLL4; hDLL4
Description: Kinetic analysis to determine the affinity of the DII4-VHH interaction is performed by Surface Plasmon Resonance (SPR) on a Biacore T100 instrument. […] Purified VHHs or Fab fragment are injected for 2 minutes at different concentrations (between 10 and 300 nM) and allowed to dissociate for 20 min at a flow rate of 45 μl/min. Between sample injections, the surfaces are regenerated with 10 mM glycine pH1.5 and 100 mM HCl. HBS-N (Hepes buffer pH7.4) is used as running buffer. If possible, data are evaluated by fitting a 1:1 interaction model (Langmuir binding) onto the binding curves. The affinity constant KD is calculated from resulting association and dissociation rate constants (kₐ) and […].

[6] = target: T1, cynomolgus DLL4 expressed on CHO cells; experiment: FACS; summary table, column taken as cDLL4
[7] = target: T4, recombinant human DLL4 (C-terminally …); experiment: SPR (Biacore); summary table
[8] = target: T3, recombinant mouse DLL4 (C-terminally …); experiment: SPR (Biacore); summary table
[9] = target: T5, mouse DLL4 expressed on CHO cells (mouse, UniProt Q9JI71 27-686); experiment: competition FMAT CHO-mDLL4; summary table
T5 construct: whole, on cells; also called mDLL4; CHO-mDLL4

[10] = target: T4, recombinant human DLL4 (C-terminally …); experiment: competition ELISA, biotinylated hDLL4 to coated hNotch1-Fc
[11] = target: T5, mouse DLL4 expressed on CHO cells; experiment: FACS on CHO-mDLL4 cells
[12] = target: T4, recombinant human DLL4 (C-terminally …); experiment: competition ELISA hDLL4/hNotch1-Fc; summary table
[13] = target: T1, cynomolgus DLL4 expressed on CHO cells; experiment: FACS on CHO-cDLL4 cells
[14] = target: T5, mouse DLL4 expressed on CHO cells; experiment: FACS; summary table, column taken as mDLL4
[15] = target: T2, human DLL4 expressed on cells …; experiment: competition FMAT CHO-hDLL4; summary table
[16] = target: T2, human DLL4 expressed on cells …; experiment: FACS; summary table, column taken as hDLL4
[17] = target: T5, mouse DLL4 expressed on CHO cells; experiment: competition FMAT, labelled hNotch1-Fc on CHO-mDLL4 cells

T3 sequence (Q9JI71 27-532): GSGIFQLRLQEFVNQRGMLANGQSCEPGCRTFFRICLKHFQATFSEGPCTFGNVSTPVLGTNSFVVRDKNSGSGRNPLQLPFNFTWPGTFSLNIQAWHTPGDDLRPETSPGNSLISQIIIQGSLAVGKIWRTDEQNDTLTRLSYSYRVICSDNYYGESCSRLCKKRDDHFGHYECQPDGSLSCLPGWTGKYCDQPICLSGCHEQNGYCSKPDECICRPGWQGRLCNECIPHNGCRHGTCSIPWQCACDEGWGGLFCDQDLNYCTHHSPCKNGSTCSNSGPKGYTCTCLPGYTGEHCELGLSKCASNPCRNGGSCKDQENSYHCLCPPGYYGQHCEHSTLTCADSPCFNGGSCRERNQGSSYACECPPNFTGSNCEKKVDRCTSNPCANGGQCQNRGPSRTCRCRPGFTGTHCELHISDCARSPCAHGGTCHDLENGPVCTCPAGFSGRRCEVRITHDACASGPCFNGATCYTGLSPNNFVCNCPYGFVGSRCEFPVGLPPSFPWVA
T5 sequence (Q9JI71 27-686): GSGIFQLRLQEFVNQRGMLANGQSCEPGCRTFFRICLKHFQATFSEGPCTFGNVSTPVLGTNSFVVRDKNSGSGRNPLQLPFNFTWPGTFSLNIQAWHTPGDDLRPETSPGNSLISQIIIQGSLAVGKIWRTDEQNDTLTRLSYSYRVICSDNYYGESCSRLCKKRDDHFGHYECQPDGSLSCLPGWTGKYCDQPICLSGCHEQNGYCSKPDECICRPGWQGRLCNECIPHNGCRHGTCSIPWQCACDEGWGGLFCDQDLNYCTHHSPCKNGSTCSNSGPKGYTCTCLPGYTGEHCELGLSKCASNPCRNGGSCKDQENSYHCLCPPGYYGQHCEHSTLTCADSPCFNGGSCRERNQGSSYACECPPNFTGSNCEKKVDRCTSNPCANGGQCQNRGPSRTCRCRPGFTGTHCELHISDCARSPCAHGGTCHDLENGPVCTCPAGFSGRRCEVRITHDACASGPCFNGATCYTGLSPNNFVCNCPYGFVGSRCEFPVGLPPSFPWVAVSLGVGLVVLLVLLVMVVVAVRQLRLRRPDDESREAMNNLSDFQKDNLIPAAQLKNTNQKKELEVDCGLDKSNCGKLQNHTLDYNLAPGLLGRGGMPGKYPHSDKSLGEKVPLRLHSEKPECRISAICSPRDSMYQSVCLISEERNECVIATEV

Binder	EC50 [1] [nM]	Kd [2] [nM]	koff [2] [s⁻¹]	kon [2] [M⁻¹ s⁻¹]	IC50 [3] [nM]	IC50, DLL4-mediated reporter assay [4] [nM]	Kd [5] [nM]	koff [5] [s⁻¹]	kon [5] [M⁻¹ s⁻¹]	EC50 [6] [nM]	Kd [7] [nM]	Kd [8] [nM]	IC50 [9] [nM]	IC50 [10] [nM]	EC50 [11] [nM]	IC50 [12] [nM]	EC50 [13] [nM]	IC50 [15] [nM]	EC50 [16] [nM]	IC50 [17] [nM]	other results
DLLBII015 (VHH, not shown: small tags and cut ends) VHH: EVQLVESGGGLVQPGGSLRLSCAASGFTIGSYDMSWVRRSPGKGPEWVSAINSGGGSTYYADYVKGRFTISRDNAKNTLYLQMNSLKPEDTAVYYCAADRYIWARQGEYWGAYAYDYWGQGTQVTVSS	14.8	4.3	0.0015	350000	5.7	18	1	0.00047	450000	5.1	1	4.3	21.2	0.9	7	0.9	5.1	5.7	14.8	21.2	EC50 [14]: 7 nM
DLLBII101G08 (VHH, not shown: small tags and cut ends, parent VHH; also called 101G08 (wt); 101G8) VHH: EVQLVESGGGLVQAGGSLRLSCAASGRTFSSYAMAWFRQAPGKEREFVAAIRWSGGTAYYADSVQGRFTISRDNAKNTVYLQMNSLKPEDTAVYYCANRAADTRLGPYEYDYWGQGTQVTVSS	17.5	60	0.0056	94000	69.3	1940	48	0.0023	48000	11.2	48	60	140	10		10	11.2	69.3	17.5	140	
DLLBII129B05 (VHH, not shown: small tags and cut ends) VHH: EVQLVESGGGLVQAGGSLRLSCAASGRTFSSYAMAWYRQAPGKEREYVAAIRWSGGTAYYADSVQGRFTISRDNAKNTVYLQMNSLKPEDTAVYYCANRAPDTRLAPYEYDHWGQGTQVTVSS	9.7	1.1	0.00031	270000	7.4	60	0.3	7.9e-05	230000	3.9	0.3	1.1	14.4	0.9	3.9	0.9	3.9	7.4	9.7	14.4	EC50 [14]: 3.9 nM

More lines, main results first:

EC50 [1] [nM]	Kd [2] [nM]	koff [2] [s⁻¹]	kon [2] [M⁻¹ s⁻¹]	IC50 [3] [nM]	IC50, DLL4-mediated reporter assay [4] [nM]	Kd [5] [nM]	koff [5] [s⁻¹]	kon [5] [M⁻¹ s⁻¹]	EC50 [6] [nM]	Kd [7] [nM]	Kd [8] [nM]	IC50 [9] [nM]	IC50 [10] [nM]	EC50 [11] [nM]	IC50 [12] [nM]	EC50 [13] [nM]	IC50 [15] [nM]	EC50 [16] [nM]	IC50 [17] [nM]	Binder	other results
7.2	7.8	0.0027	350000	6.6	87	2.1	0.0009	440000	2.3	2.1	7.8	18.6	1.5	1.7	1.5	2.3	6.6	7.2	18.6	DLLBII133A09 (VHH, not shown: small tags and cut ends) VHH: EVQLVESGGGLVQPGGSLRLSCAASGFTFGSYDMSWVRRSPGKGPEWVSAINSGGGSTYYADYVKGRFTISRDNAKNTLYLQMNSLKPEDTAVYYCAADRYIWARQGEYWGAYAYDYWGQGTQVTVSS	EC50 [14]: 1.7 nM
8.5	3.4	0.0016	470000	5.9	104	0.8	0.00047	590000	2.7	0.8	3.4	12	2	2.8	2	2.7	5.9	8.5	12	DLLBII133G05 (VHH, not shown: small tags and cut ends) VHH: EVQLVESGGGLVQPGGSLRLSCAASGFTFGSYDMSWVRRSPGKGPEWVSAINSGGGSTYYTDYVKGRFTISRDNAKNTLYLQMNSLKPEDTAVYYCAADRYIWARQGEYWGAYAYDYWGQGTQVTVSS	EC50 [14]: 2.8 nM
1.4	1.2	0.00029	250000	8.1	98	0.5	9e-05	190000	4.2	0.5	1.2	12.3	1.3	4.1	1.3	4.2	8.1	10.4	12.3	DLLBII129E11 (VHH, not shown: small tags and cut ends) VHH: EVQLVESGGGLVQAGGSLRLSCAASGRTFSSYAMAWYRQAPGKEREYVAAIRWSGGTAYYADSVQGRFTISRDNAKNTVYLQMNSLKPEDTAVYYCANRAPDTRLRPYLYDYWGQGTQVTVSS	EC50 [14]: 4.1 nM
9.6	0.8	0.0002	270000	7.8	77	0.4	6.4e-05	180000	3.8	0.4	0.8	11	1.2	3.7	1.2	3.8	7.8	9.6	11	DLLBII129D08 (VHH, not shown: small tags and cut ends) VHH: EVQLVESGGGLVQAGGSLRLSCAASGRTFSSYAMAWYRQAPGKEREYVAAIRWSGGTAYYADSVQGRFTISRDNAKNTVYLQMNSLKPEDTAVYYCANRAPDTRLEPYLYDYWGQGTQVTVSS	EC50 [14]: 3.7 nM
